{"source": "paper PMC3632608", "key": {"[1]": {"target": "Recombinant human α-synuclein (human) (UniProt P37840)"}, "[2]": {"target": "A30P mutant α-synuclein (human) (UniProt P37840)"}, "[3]": {"target": "A53T mutant α-synuclein (human) (UniProt P37840)"}, "[4]": {"target": "Recombinant human β-synuclein (human) (UniProt Q16143)", "assay": "SEC; Superose 12, 50 mM Tris/HCl pH 7.4, 100 mM NaCl, 1 mM EDTA, 5% glycerol, 0.5 ml/min; 20-50 µg per run; in vitro aged α-synuclein, β-synuclein or co-incubated mixtures; mass estimated from gel filtration standards"}}, "data": [{"substance": "Recombinant human β-synuclein (from UniProt Q16143 1-134) (natural protein)", "values": [{"measurement": "reduction of isoaspartate formed in native α-synuclein on co-incubation with approximately equimolar β-synuclein, 0-20 days of in vitro ageing (methanol diffusion assay); value after 20 days", "setting": "[1]", "result": 72.2, "unit": "%"}, {"measurement": "reduction of isoaspartate formed in A30P α-synuclein on co-incubation with approximately equimolar β-synuclein, 0-20 days of in vitro ageing (methanol diffusion assay); value after 20 days", "setting": "[2]", "result": 84.3, "unit": "%"}, {"measurement": "reduction of isoaspartate formed in A53T α-synuclein on co-incubation with approximately equimolar β-synuclein, 0-20 days of in vitro ageing (methanol diffusion assay); value after 20 days", "setting": "[3]", "result": 47.9, "unit": "%"}, {"measurement": "stoichiometry N", "setting": "[4]", "result": 4}]}]}
